Measured values taken from a protein production outcome set (Wang et al. 2014).

test: label from the status in PepcDB records

Sequence | protein production
MSDNNDRMYELEYPSPEVSGQTAGGPTLIVALQGYADAGHAVESSSSHLMDALDHRLIASFNNDELIDYRSRRPVVVIEHNEVTSMDELNLGLHVVRDNDNKPFLMLSGPEPDLRWGDFSNAVVDLVEKFGVENTICLYAAPMTVPHTRPTVVTAHGNSTDRLKDQVSLDTRMTVPGSASLMLEKLLKDKGKNVSGYTVHVPHYVSASPYPAATLKLLQSIADSADLNLPLLALERDAEKVHRQLMEQTEESSEIQRVVGALEQQYDSE | not failed
MSDPAEVPTASPLLETVGLACERDWRMLFERLDLRLAAGEMLQVVGPNGSGKTSLLRLLSGLMQPTAGEVRLNGRPLAEQRGELARSLLWIGHAAGIKGLLSAEENLTWLCALHQPASREAIWQALADVGLRGFEDVPCHTLSAGQQRRVALARLYLDAPPLWILDEPFTALDKQGVAQLETHLAGHCQRGGMVVLTTHHSLQQVPAGYRELDLGALKAASGATVEPALGDPA | failed
MSDRDSWISNLGFVLAAVGGAAGLGNIWRFPWLTAGNGGSAFLIVYLLVVVGIGVPGLLAEFVLGRCGRQTPTAALRSLTGSRWGSWLGAFNVLTTLVILSFYSVVGGWILRYTLVSPVGTYFGQPQQYFGAMSFGLEAVAFHLLFLGIVAAIVFFGISNGIERVSKVMLPGVVIILLGLAVWTATQPGTAAGYAFYLSFDAEYLAANFLSVIGPAAGQALFTLSLGAGVMLTYASYLDDNASLPRDTLVIAVSNTFIGVLAGLVVIPLLFSQGVDPGQGGPGALFVALATAFATLPGGELVATAFFVTVLMAAVTSGISLLETPVATLVDSFGVPRRRATVLVSVLLAATGSGLALTSSVFQFVSGTLADLMLTVGLFAFTVIVGWLLRGDALAEFRAGTARFEWLAKPWLLTVSWVLPVVVLFLLTNTLASLAGISVGLGGRVIIAVIGTVALAVVVRNGSRTDRLSSH | failed
MSDRIASEKLRSKLMSADEAAQFVNHGDKVGFSGFTGAGYPKALPTAIANRAKEAHGAGNDYAIDLFTGASTAPDCDGVLAEADAIRWRMPYASDPIMRNKINSGSMGYSDIHLSHSGQQVEEGFFGQLNVAVIEITRITEEGYIIPSSSVGNNVEWLNAAEKVILEVNSWQSEDLEGMHDIWSVPALPNRIAVPINKPGDRIGKTYIEFDTDKVVAVVETNTADRNAPFKPVDDISKKIAGNFLDFLESEVAAGRLSYDGYIMQSGVGNVPNAVMAGLLESKFENIQAYTEVIQDGMVDLIDAGKMTVASATSFSLSPEYAEKMNNEAKRYRESIILRPQQISNHPEVIRRVGLIATNGLIEADIYGNVNSTNVSGSRVMNGIGGSGDFTRNGYISSFITPSEAKGGAISAIVPFASHIDHTEHDVMVVISEYGYADLRGLAPRERVAKMIGLAHPDYRPLLEEYYARATSGDNKYMQTPHDLATAFDFHINLAKNGSMKA | not failed
MSDSAEMQQPELLLKSMNKLNGYHPQLIIPKKTLFKCDLDDKQSRLQVSSMHMENSGFLTEDEKRTIEAQKMKKRRTAGLRVAFIDPESQQYVLELHKWTKSYAFVKGWNKVVDKNDKTFKVGDVFSLWVFRCGGVNPVHDGVNLSGGHADSVVDGLEQGSLCFVLVPAKVSVHDGNLPQDSGHDGHNDNLPQDSVEPSSFFDESYELNHLFFDQEDSQGYLPDEDEDFGFNDDGSIRDSGHYQ | failed
MSDSATEYDKLFIGGKWTKPSTSDVIEVRCPATGEYVGKVPMAAAADVDAAVAAARAAFDNGPWPSTPPHERAAVIAAAVKMLAERKDLFTKLLAAETGQPPTIIETMHWMGSMGAMNYFAGAADKVTWTETRTGSYGQSIVSREPVGVVGAIVAWNVPLFLAVNKIAPALLAGCTIVLKPAAETPLTANALAEVFAEVGLPEGVLSVVPGGIETGQALTSNPDIDMFTFTGSSAVGREVGRRAAEMLKPCTLELGGKSAAIILEDVDLAAAIPMMVFSGVMNAGQGCVNQTRILAPRSRYDEIVAAVTNFVTALPVGPPSDPAAQIGPLISEKQRTRVEGYIAKGIEEGARLVCGGGRPEGLDNGFFIQPTVFADVDNKMTIAQEEIFGPVLAIIPYDTEEDAIAIANDSVYGLAGSVWTTDVPKGIKISQQIRTGTYGINWYAFDPGSPFGGYKNSGIGRENGPEGVEHFTQQKSVLLPMGYTVA | not failed
MSDSKSHDPNQMTGAAMIVRAMIDHGVEHIFGYPGGSVLPIYDELFQNSEKLQHILVRHEQGAGHAAEGYARSTGKPGVVLVTSGPGATNMVTPLADALMDSIPIVCITGQVPTHLIGNDAFQECDTVGITRPCTKHNWLVRDIKDLARVLHEAFYVATSGRPGPVVVDVPKDVQFATGTYHPPRKSDVHVSYTPRLKGDPGQIRKAVALLASAKKPVIYSGGGVVNSGEEAWKLLRELVEVTDFPITSTLMGLGAYPASGKNWLGMLGMHGTYESNMTMHDCDVMLCIGARFDDRITGRTDAFSPNSKKIHIDIDPSSINKNIRVDVPIIGDVAHVLADLLAAFKAEAKKADTKAWWLQIAAWRGRNSLAYKKNNDVILPQYAIERLYAATRGRDTYITTEVGQHQMWAAQFYGFERPRRWMTSGGLGTMGYGLPAALGVQVAHPDSLVIDIAGDASVQMTMQEMATAVQYELPIKIFILNNQYMGMVRQWQQLLHGNRLSHSYTEAMPDFVKLADAYGGVGMQVFKPSDLDGAIQDMIKVKKPVLFDCRVASLENCFPMIPSGKAHNEMLLPSEANDETTAAAFAGGGALV | failed
MSDSLFLSLAKFDVILSGSTNSNILHDVMGQVIDRSEIQDLNANNKPTKKIDFHLRDQHDTRLACILWGKYAEIVDKACQESTDGIVVCLIRFAKINLYNDTRSVSNFFDVSQVFVDPTLAELDLFKQSIP | failed
MSDTVLTGLLDTVWQQFGRGTKDRHHPARHPTLATIGTDGPDLRTLVLRAASHAEATLEFHTDAASPKVAHIRRDARVAIHIWIPKASLQVRAKAIAKILPGDPNLFAQLPEAARMNYQGPVPGTPLPAEPDATPNRFTRLICHLSEIDVLHLTTPHQRAVYTAPDWRGIWVSP | not failed
MSDVSTQSPKVGFVSLGCPKALVDSEQIITQLRAEGYEISGTYGGADLVVVNTCGFIDEAVQESLDAIGEALAENGKVIVTGCLGAKKDAAGQDIITSVHPKVLAVTGPHALGEVMEAVHTHLPKPHDPFIDLVPPQGIKLTPKHYAYLKISEGCNHRCSFCIIPSMRGDLVSRPVAEVMLEAENLLKAGVKELLVISQDTSAYGVDVKFRTGFWNGRPLKTRMTELVGALGELAAQYGAWVRLHYVYPYPSVDEVMPLMAEGKVLPYLDVPLQHAHPEVLKRMKRPANAEKTLDRIRAWREVCPELTIRSTFIAGFPGETEEEFQTLLDFIAEAELDRVGCFAYSPVEGATANDLPGALPDEVREERRARFMEVAERVSARRLQRKVGKTLRVLVDEVNQDGGIGRSSADAPEIDGLVYIAPPSKPYKRYKAGDFVSVKITGADGHDLWGEVLEHHHHHH | failed
MSDVTVVAMVTNAYPVNEFQRSSGGTGKVRNIMLEDGTGSIRMALWDSDAETEISEGDVVKLIHGYAKESGEYMDLSTGRFGRLEHHHHHH | failed
MSEAEAKLWQHLRAGRLNGYKFRRQQPMGNYIVDFMCVTPKLIVEADGGQHAEQAVYDHARTVYLNSLGFTVLRFWNHEILQQTNDVLAEILRVLQELEKQ | not failed
MSEAVPSVVAIDIGTHKVSVLIGKVHAPDNIQVIGMATARNRGMNKGKIVSLDKVISAIKNAVAEAENMAECRVHTAWVSIPTTELQSFYASGRIPIAKADHTITTNEVVRALELAKASHVTPDYYLASAVPLGFELDDSSEWVQNPINMSAHSMTGHYQLMMMPISIMQNLDRAMKGASIGVEKMVVSCLATAEASLLKDEKEYGVCLLDIGAGTTNIAVYLDGRLALARTLQRGGENVTRDIAAVLQTTTEEAERIKILHGCVDLSAIKPDQMIQVQAIDGPQTISRIELAEIIIARYEEILGQVRDELERSGAIHGLYHGVVLTGDACQIEGMISLARRILGVSAHLGNPPLQVYADDQHQASIRRSMYATAAGLLMFSQSELQDTVEDSEEASQRSLWNRVANGWNTLNTKLKAIF | failed
MSEAYFRVESGALGPEENFLSLDDILMSHEKLPVRTETAMPRLGAFFLERSAGAETDNAVPQGSKLELPLWLAKGLFDNKRRILSVELPKIYQEGWRTVFSADPNVVDLHKMGPHFYGFGSQLLHFDSPENADISQSLLQTFIGRFRRIMDSSQNAYNEDTSALVARLDEMERGLFQTGQKGLNDFQCWEKGQASQITASNLVQNYKKRKFTDMED | failed
MSEGMMLTTLDRLTIYAVLCFISLCALGLGETTQAQLMPVLGTAASIFGIWLEMRSEQDTTQQPHR | failed
MSEINYSTVQYYLVLILIFIYLSLFVLEKKWPLRKATRPLLPRLAINFTFTLLVYVIASLFISPLAKATVLFTFSHDFGLLSMLPFNQWVVFILGFLLMDLSFYYWHALNHKLPLLWRFHVVHHADPDLDVSTAMRFHCVEIMYSSLFRLVQLGLIGVSPLLFFCYEFFFQAHTFFQHSNIKLPFRFERLINKIIVTPRMHGIHHSNYLNETNSNYGVVFSFWDRLHQTIKLDIPQQAIIIGVPGYSKPSDNSLIRLLLMPIKAQRHYWQIKKDFHFSRKSKTSDKKVRTLCE | failed
MSEKMVAIMKTKPGYGAELVEVDVPKPGPGEVLIKVLATSICGTDLHIYEWNEWAQSRIKPPQIMGHEVAGEVVEIGPGVEGIEVGDYVSVETHIVCGKCYACRRGQYHVCQNTKIFGVDTDGVFAEYAVVPAQNIWKNPKSIPPEYATLQEPLGNAVDTVLAGPISGKSVLITGAGPLGLLGIAVAKASGAYPVIVSEPSDFRRELAKKVGADYVINPFEEDVVKEVMDITDGNGVDVFLEFSGAPKALEQGLQAVTPAGRVSLLGLYPGKVTIDFNNLIIFKALTIYGITGRHLWETWYTVSRLLQSGKLNLDPIITHKYKGFDKYEEAFELMRAGKTGKVVFMLK | not failed
MSEKRLPLKPVLRIDFPPGERLGHGKVELMQLIAETGSISAAGRAMDMSYRRAWLLVDALNHMFRQPVICSQRGGKQGGGAALTVFGAELLERYRGMEERMNEALREDIDWLEANRNPQDALNRDREPPTL | not failed
MSELEEDFAKILMLKEERIKELEKRLSEKEEEIQELKRKLHKCQSVLPVPSTHIGPRTTRAQGISAEPQTYRSFHDLRQAFRKFTKSERSKDLIKEAILDNDFMKNLELSQIQEIVDCMYPVEYGKDSCIIKEGDVGSLVYVMEDGKVEVTKEGVKLCTMGPGKVFGELAILYNCTRTATVKTLVNVKLWAIDRQCFQTIMMRTGL | failed
MSEMAASSAISLLDIKLRRFGVGASNHELRLTKWFKGDQAGAPTRRFTCFADMLAPIRRSEKSEERRFDQKMSAHGAGIKTSSSAVPFASPKSRFLSKQEKFYPRCTPRLTGPQSRDTPPKRDTGIANEKDWGIDLLNENVNEAGTNEDGSSWFRESGHDLGDNGYRCRWSRMGGRSHDGSSEWTETWWEKSDWTGYKELGVEKSGKNSEGDSWWETWQEVLHQDEWSNLARIERSAQKQAKSGTENAGWYEKWWEKYDAKGWTEKGAHKYGRLNEQSWWEKWGEHYDGRGSVLKWTDKWAETELGTKWGDKWEEKFFSGIGSRQGETWHVSPNSDRWSRTWGEEHFGNGKVHKYGKSTTGESWDIVVDEETYYEAEPHYGWADVVGDSTQLLSIQPRERPPGVYPNLEFGPSPPPEPDLPLTNHNDITSVCLAY | failed
MSENKKKFDKKGAKNMDEISKTLFAPIYPIIAENIINRFGITAGTCIDIGSGPGALSIALAKQSDFSIRALDFSKHMNEIALKNIADANLNDRIQIVQGDVHNIPIEDNYADLIVSRGSVFFWEDVATAFREIYRILKSGGKTYIGGGFGNKELRDSISAEMIRKNPDWKEFNRKNISQENVERFQNVLDEIGISSYEIILGDEGFWIIISKTDQEVI | not failed
